# Target: GST-AP-2alpha (Homo sapiens, UniProt P05549 1-437)
# Assay: competition
# Chain of GST-AP-2alpha (P05549 whole entry): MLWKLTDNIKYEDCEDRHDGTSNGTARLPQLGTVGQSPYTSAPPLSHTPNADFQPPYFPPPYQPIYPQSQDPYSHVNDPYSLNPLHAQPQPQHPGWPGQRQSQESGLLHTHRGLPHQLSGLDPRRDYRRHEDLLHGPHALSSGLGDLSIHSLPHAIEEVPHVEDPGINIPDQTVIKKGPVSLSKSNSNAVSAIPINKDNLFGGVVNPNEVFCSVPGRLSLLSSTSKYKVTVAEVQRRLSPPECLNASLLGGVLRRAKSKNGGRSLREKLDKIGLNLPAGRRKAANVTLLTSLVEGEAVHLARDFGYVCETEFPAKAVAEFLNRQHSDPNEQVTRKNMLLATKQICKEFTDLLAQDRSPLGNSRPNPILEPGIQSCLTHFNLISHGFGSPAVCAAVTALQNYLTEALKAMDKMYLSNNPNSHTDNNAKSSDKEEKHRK
binder,measurement,value
O58 (dsDNA) DNA 1: GATTGTCCCTACACTCGCCTCAGGCGATCATCGGAATACACGATGCTTGG DNA 2: CCAAGCATCGTGTATTCCGATGATCGCCTGAGGCGAGTGTAGGGACAATC,binding result,binds
